In the supplement of paper PMC10567573:

B1: CHCHD6 (parent)
chain: MYKLSSEQFHEAASKMESTIKPRR

Variants of: B1
Assay: protein stability index of a GFP-peptide fusion (GPS, HEK-293T) (PSI 1-6); higher = more stable
Conditions: c terminus: a fixed tail appended
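Note: lentivirally expressed fusions sorted by FACS into six bins by GFP to DsRed ratio, PSI derived from sequencing read proportions per bin multiplied by bin number.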

Variant	protein stability index
MYKLSSEQFHEAGSKMESTIKPRR	3.83
MYKLSSEQFHEAMSKMESTIKPRR	2.59
MYKLSSEQFHEAFSKMESTIKPRR	2.88
MYKLSSEQFHEAESKMESTIKPRR	4.33
MYKLSSEQFHEAPSKMESTIKPRR	3.81
MYKLSSEQFHEAYSKMESTIKPRR	3.36
MYKLSSEQFHEAISKMESTIKPRR	2.93
MYKLSSEQFHEANSKMESTIKPRR	4.24
MYKLSSEQFHEAKSKMESTIKPRR	3.86
MYKLSSEQFHEADSKMESTIKPRR	4.25
MYKLSSEQFHEAQSKMESTIKPRR	3.61
MYKLSSEQFHEARSKMESTIKPRR	3.66
MYKLSSEQFHEAHSKMESTIKPRR	3.9
MYKLSSEQFHEALSKMESTIKPRR	3.09
MYKLSSEQFHEAVSKMESTIKPRR	4.02
MYKLSSEQFHEATSKMESTIKPRR	4.02
MYKLSSEQFHEACSKMESTIKPRR	3.33
MYKLSSEQFHEAWSKMESTIKPRR	2.95
MYKLSSEQFHEASSKMESTIKPRR	3.81
MYKLSSEQFHEAASKNESTIKPRR	4.17
MYKLSSEQFHEAASKRESTIKPRR	3.94
MYKLSSEQFHEAASKHESTIKPRR	4.44
MYKLSSEQFHEAASKWESTIKPRR	3.41
MYKLSSEQFHEAASKKESTIKPRR	4.31

Variant	protein stability index
MYKLSSEQFHEAASKIESTIKPRR	3.53
MYKLSSEQFHEAASKSESTIKPRR	4.16
MYKLSSEQFHEAASKCESTIKPRR	3.58
MYKLSSEQFHEAASKLESTIKPRR	3.41
MYKLSSEQFHEAASKTESTIKPRR	4.34
MYKLSSEQFHEAASKYESTIKPRR	3.45
MYKLSSEQFHEAASKDESTIKPRR	4.09
MYKLSSEQFHEAASKGESTIKPRR	3.77
MYKLSSEQFHEAASKPESTIKPRR	4.31
MYKLSSEQFHEAASKFESTIKPRR	3.53
MYKLSSEQFHEAASKAESTIKPRR	4.17
MYKLSSEQFHEAASKVESTIKPRR	4.46
MYKLSSEQFHEAASKQESTIKPRR	4.47
MYKLSSEQFHEAASKEESTIKPRR	4.55
MYKLSSEQFHEAASKMESPIKPRR	3.68
MYKLSSEQFHEAASKMESKIKPRR	3.77
MYKLSSEQFHEAASKMESMIKPRR	3.72
MYKLSSEQFHEAASKMESEIKPRR	3.89
MYKLSSEQFHEAASKMESYIKPRR	3.4
MYKLSSEQFHEAASKMESFIKPRR	3.63
MYKLSSEQFHEAASKMESWIKPRR	2.15
MYKLSSEQFHEAASKMESDIKPRR	3.49
MYKLSSEQFHEAASKMESAIKPRR	3.78
MYKLSSEQFHEAASKMESNIKPRR	4

Variant	protein stability index
MYKLSSEQFHEAASKMESIIKPRR	3.12
MYKLSSEQFHEAASKMESLIKPRR	3.67
MYKLSSEQFHEAASKMESRIKPRR	3.88
MYKLSSEQFHEAASKMESHIKPRR	4.29
MYKLSSEQFHEAASKMESVIKPRR	3.82
MYKLSSEQFHEAASKMESSIKPRR	3.82
MYKLSSEQFHEAASKMESGIKPRR	3.76
MYKLSSEQFHEAASKMESCIKPRR	3.67
MYKLSSEQFHEAASKMESQIKPRR	4.09
MYKLSSEQFHEAASNMESTIKPRR	4.42
MYKLSSEQFHEAASAMESTIKPRR	3.49
MYKLSSEQFHEAASYMESTIKPRR	3.5
MYKLSSEQFHEAASDMESTIKPRR	4.18
MYKLSSEQFHEAASCMESTIKPRR	3.54
MYKLSSEQFHEAASIMESTIKPRR	3.67
MYKLSSEQFHEAASEMESTIKPRR	4.42
MYKLSSEQFHEAASRMESTIKPRR	3.72
MYKLSSEQFHEAASPMESTIKPRR	3.93
MYKLSSEQFHEAASMMESTIKPRR	3.84
MYKLSSEQFHEAASQMESTIKPRR	4.74
MYKLSSEQFHEAASSMESTIKPRR	4.04
MYKLSSEQFHEAASFMESTIKPRR	3.91
MYKLSSEQFHEAASHMESTIKPRR	3.75
MYKLSSEQFHEAASTMESTIKPRR	4.37

Variant	protein stability index
MYKLSSEQFHEAASLMESTIKPRR	3.73
MYKLSSEQFHEAASVMESTIKPRR	4.2
MYKLSSEQFHEAASGMESTIKPRR	3.82
MYKLSSEQFHEAASWMESTIKPRR	3.73
MYKLSSEQFHEAAHKMESTIKPRR	3.9
MYKLSSEQFHEAALKMESTIKPRR	3.1
MYKLSSEQFHEAAAKMESTIKPRR	3.56
MYKLSSEQFHEAATKMESTIKPRR	3.81
MYKLSSEQFHEAAMKMESTIKPRR	3.47
MYKLSSEQFHEAAYKMESTIKPRR	2.83
MYKLSSEQFHEAAEKMESTIKPRR	4.12
MYKLSSEQFHEAARKMESTIKPRR	3.48
MYKLSSEQFHEAAGKMESTIKPRR	3.87
MYKLSSEQFHEAAPKMESTIKPRR	3.82
MYKLSSEQFHEAAQKMESTIKPRR	4.24
MYKLSSEQFHEAACKMESTIKPRR	3.29
MYKLSSEQFHEAAFKMESTIKPRR	3.05
MYKLSSEQFHEAAKKMESTIKPRR	3.68
MYKLSSEQFHEAADKMESTIKPRR	3.61
MYKLSSEQFHEAANKMESTIKPRR	3.78
MYKLSSEQFHEAAWKMESTIKPRR	3.18
MYKLSSEQFHEAAVKMESTIKPRR	4.11
MYKLSSEQFHEAAIKMESTIKPRR	2.86
MYKLSSEQFGEAASKMESTIKPRR	4.28

Variant	protein stability index
MYKLSSEQFLEAASKMESTIKPRR	3.69
MYKLSSEQFREAASKMESTIKPRR	3.82
MYKLSSEQFSEAASKMESTIKPRR	4.15
MYKLSSEQFIEAASKMESTIKPRR	3.08
MYKLSSEQFYEAASKMESTIKPRR	3.52
MYKLSSEQFMEAASKMESTIKPRR	3.37
MYKLSSEQFTEAASKMESTIKPRR	3.3
MYKLSSEQFVEAASKMESTIKPRR	3.78
MYKLSSEQFWEAASKMESTIKPRR	2.54
MYKLSSEQFKEAASKMESTIKPRR	4
MYKLSSEQFEEAASKMESTIKPRR	4.24
MYKLSSEQFFEAASKMESTIKPRR	3.44
MYKLSSEQFNEAASKMESTIKPRR	3.41
MYKLSSEQFDEAASKMESTIKPRR	4.15
MYKLSSEQFQEAASKMESTIKPRR	3.98
MYKLSSEQFPEAASKMESTIKPRR	4.08
MYKLSSEQFHPAASKMESTIKPRR	3.6
MYKLSSEQFHIAASKMESTIKPRR	3.34
MYKLSSEQFHQAASKMESTIKPRR	3.69
MYKLSSEQFHCAASKMESTIKPRR	3.06
MYKLSSEQFHFAASKMESTIKPRR	2.65
MYKLSSEQFHTAASKMESTIKPRR	3.75
MYKLSSEQFHMAASKMESTIKPRR	3.28
MYKLSSEQFHLAASKMESTIKPRR	3.26

Variant	protein stability index
MYKLSSEQFHAAASKMESTIKPRR	2.99
MYKLSSEQFHDAASKMESTIKPRR	3.65
MYKLSSEQFHGAASKMESTIKPRR	3.8
MYKLSSEQFHRAASKMESTIKPRR	3.35
MYKLSSEQFHVAASKMESTIKPRR	3.4
MYKLSSEQFHKAASKMESTIKPRR	3.69
MYKLSSEQFHYAASKMESTIKPRR	3.52
MYKLSSEQFHNAASKMESTIKPRR	3.4
MYKLSSEQFHHAASKMESTIKPRR	3.22
MYKLSSEQFHSAASKMESTIKPRR	3.37
MYKLSSEQFHWAASKMESTIKPRR	2.77
MYKLSSEQFHELASKMESTIKPRR	2.92
MYKLSSEQFHEHASKMESTIKPRR	4.12
MYKLSSEQFHEQASKMESTIKPRR	4.04
MYKLSSEQFHEVASKMESTIKPRR	3.58
MYKLSSEQFHEYASKMESTIKPRR	3.39
MYKLSSEQFHERASKMESTIKPRR	3.55
MYKLSSEQFHEEASKMESTIKPRR	4.56
MYKLSSEQFHEIASKMESTIKPRR	2.88
MYKLSSEQFHESASKMESTIKPRR	3.97
MYKLSSEQFHEPASKMESTIKPRR	4.23
MYKLSSEQFHEDASKMESTIKPRR	4.17
MYKLSSEQFHECASKMESTIKPRR	3.31
MYKLSSEQFHEMASKMESTIKPRR	3.14

Variant	protein stability index
MYKLSSEQFHEFASKMESTIKPRR	3.27
MYKLSSEQFHEGASKMESTIKPRR	3.69
MYKLSSEQFHENASKMESTIKPRR	2.9
MYKLSSEQFHEWASKMESTIKPRR	2.55
MYKLSSEQFHEKASKMESTIKPRR	3.59
MYKLSSEQFHETASKMESTIKPRR	3.75
MYKLSSEQFHEAASKMEMTIKPRR	3.31
MYKLSSEQFHEAASKMEDTIKPRR	4.24
MYKLSSEQFHEAASKMEYTIKPRR	3.42
MYKLSSEQFHEAASKMEITIKPRR	2.68
MYKLSSEQFHEAASKMECTIKPRR	3.99
MYKLSSEQFHEAASKMETTIKPRR	4.1
MYKLSSEQFHEAASKMEVTIKPRR	3.77
MYKLSSEQFHEAASKMELTIKPRR	3.4
MYKLSSEQFHEAASKMEQTIKPRR	3.47
MYKLSSEQFHEAASKMEETIKPRR	3.71
MYKLSSEQFHEAASKMEPTIKPRR	3.8
MYKLSSEQFHEAASKMENTIKPRR	3.97
MYKLSSEQFHEAASKMERTIKPRR	4.13
MYKLSSEQFHEAASKMEHTIKPRR	4.51
MYKLSSEQFHEAASKMEKTIKPRR	3.58
MYKLSSEQFHEAASKMEWTIKPRR	2.98
MYKLSSEQFHEAASKMEGTIKPRR	3.7
MYKLSSEQFHEAASKMEFTIKPRR	2.78

Variant	protein stability index
MYKLSSEQFHEAASKMEATIKPRR	4.41
MYKLSSEQFHEAASKMQSTIKPRR	3.71
MYKLSSEQFHEAASKMRSTIKPRR	3.29
MYKLSSEQFHEAASKMISTIKPRR	3.85
MYKLSSEQFHEAASKMLSTIKPRR	3.08
MYKLSSEQFHEAASKMNSTIKPRR	3.57
MYKLSSEQFHEAASKMKSTIKPRR	2.73
MYKLSSEQFHEAASKMWSTIKPRR	2.4
MYKLSSEQFHEAASKMDSTIKPRR	4
MYKLSSEQFHEAASKMYSTIKPRR	3
MYKLSSEQFHEAASKMVSTIKPRR	3.27
MYKLSSEQFHEAASKMGSTIKPRR	4.03
MYKLSSEQFHEAASKMFSTIKPRR	2.69
MYKLSSEQFHEAASKMMSTIKPRR	3.55
MYKLSSEQFHEAASKMSSTIKPRR	3.71
MYKLSSEQFHEAASKMCSTIKPRR	3.46
MYKLSSEQFHEAASKMTSTIKPRR	3.19
MYKLSSEQFHEAASKMPSTIKPRR	3.15
MYKLSSEQFHEAASKMHSTIKPRR	2.92
MYKLSSEQFHEAASKMASTIKPRR	3.24
